In paper PMC8565334, “The horizontal transfer of Pseudomonas aeruginosa PA14 ICE PAPI-1 is controlled by a transcriptional triad between TprA, NdpA2 and MvaT”:

B1: R3.4 (dsDNA)
DNA 1: ATTCTAAAACGATTAGAACTTCTATTTTATCCA
DNA 2: TGGATAAAATAGAAGTTCTAATCGTTTTAGAAT
B2: R3.2 (tprA-BS) (dsDNA)
DNA 1: AGTATTTAAAGCTCAATTAGCACCCCGTACTGT
DNA 2: ACAGTACGGGGTGCTAATTGAGCTTTAAATACT
B3: R3.3 (dsDNA)
DNA 1: TACTGTCTGACCTGAGTTCAACAAAGCATTCTA
DNA 2: TAGAATGCTTTGTTGAACTCAGGTCAGACAGTA
B4: R3.1 (dsDNA)
DNA 1: AATTTAGCCCAATAGTATTTAAAGCTCAATTAGCAC
DNA 2: GTGCTAATTGAGCTTTAAATACTATTGGGCTAAATT
B5: R5 (dsDNA)
DNA 1: CCTAGTCATCGAGAAATCCCCTCCCCTGTTGCCGAGTATTTCCTGCTGATGCGTGGCGGATGGCCTGCCACTGTGTGCCCCATCATCAAAGGGGGCCTCA
DNA 2: TGAGGCCCCCTTTGATGATGGGGCACACAGTGGCAGGCCATCCGCCACGCATCAGCAGGAAATACTCGGCAACAGGGGAGGGGATTTCTCGATGACTAGG
B6: R2 (dsDNA)
DNA 1: AGTACTGAATCCAGCCACTACCAAGGGGTTAACTGATGCCAGGCTTGGAAATACGGAGCCTTTCCAAGCGACTAAAACAAAGAAGAAAGCTCCCCAGAAA
DNA 2: TTTCTGGGGAGCTTTCTTCTTTGTTTTAGTCGCTTGGAAAGGCTCCGTATTTCCAAGCCTGGCATCAGTTAACCCCTTGGTAGTGGCTGGATTCAGTACT
B7: R3 (dsDNA)
DNA 1: AATTTAGCCCAATAGTATTTAAAGCTCAATTAGCACCCCGTACTGTCTGACCTGAGTTCAACAAAGCATTCTAAAACGATTAGAACTTCTATTTTATCCA
DNA 2: TGGATAAAATAGAAGTTCTAATCGTTTTAGAATGCTTTGTTGAACTCAGGTCAGACAGTACGGGGTGCTAATTGAGCTTTAAATACTATTGGGCTAAATT
B8: R1 (dsDNA)
DNA 1: TTGCAGGGGTTTCGGAGAAAAAACCTGTGACCCAGAACTCTTTTTCCGTATATTTTAAAGCGAAGTCTTCAACAAGCCTTACCGAGAAAGGAAACAGGAT
DNA 2: ATCCTGTTTCCTTTCTCGGTAAGGCTTGTTGAAGACTTCGCTTTAAAATATACGGAAAAAGAGTTCTGGGTCACAGGTTTTTTCTCCGAAACCCCTGCAA
B9: R4 (dsDNA)
DNA 1: TTTCTAACAACGATTCCCACCTGGCTCGCTTTAGGCGTAACATGAAAAACCTTCATCGCTCCTAATCCGTTTCCCTTACGCCTGCCTCGCTCACCCTCTG
DNA 2: CAGAGGGTGAGCGAGGCAGGCGTAAGGGAAACGGATTAGGAGCGATGAAGGTTTTTCATGTTACGCCTAAAGCGAGCCAGGTGGGAATCGTTGTTAGAAA

What follows are binders tested against T1, TprA (Pseudomonas aeruginosa PA14, UniProt A0A0H2ZFZ8 1-84) (assay: EMSA). Conditions: protein: recombinant; tags: His-tag removed by TEV; chain copies: 2; label: 5'-Cy5 on strand 1; blunt.
B1: no binding. B2: binds. B3: no binding. B4: no binding.

These binders were tested against T1, TprA (assay: EMSA; 1 uM TprA). Conditions: protein: recombinant; tags: His-tag removed by TEV; chain copies: 2; label: 5'-Cy5 on strand 1; blunt.
B5: no binding. B6: no binding. B7: binds. B8: no binding. B9: no binding.
